To fix the notation:
B1: SH3BP2 peptide 410-425 (SH3 domain-binding protein 2), 16-mer library wild type / TNKS ANK (TNKS 12 ANK repeats, residues 174-649) (parent complex)
chain 1: LPHLQRSPPDGQSFRS
chain 2: TGVPAVSGALRELLEACRNGDVSRVKRLVDAANVNAKDMAGRKSSPLHFAAGFGRKDVVEHLLQMGANVHARDDGGLIPLHNACSFGHAEVVSLLLCQGADPNARDNWNYTPLHEAAIKGKIDVCIVLLQHGADPNIRNTDGKSALDLADPSAKAVLTGEYKKDELLEAARSGNEEKLMALLTPLNVNCHASDGRKSTPLHLAAGYNRVRIVQLLLQHGADVHAKDKGGLVPLHNACSYGHYEVTELLLKHGACVNAMDLWQFTPLHEAASKNRVEVCSLLLSHGADPTLVNCHGKSAVDMAPTPELRERLTYEFKGHSLLQAAREADLAKVKKTLALEIINFKQPQSHETALHCAVASLHPKRKQVTELLLRKGANVNEKNKDFMTPLHVAAERAHNDVMEVLHKHGAKMNALDTLGQTALHRAALAGHLQTCRLLLSYGSDPSIISLQGFTAAQMGNEAVQQILSESTPIRTSD

Variants of B1 are the subject of the test. Description: proteomic peptide phage display deep mutational scan (ProP-PD DMS): M13 P8 16-mer library selected against immobilised GST-tagged bait for four days (rounds), NGS of the eluted pools per day and pseudo-replica; bait immobilised on MaxiSorp plates (10 µg), library pre-cleared on GST, 2 h binding at 4 °C, five washes; one round per day, days 1-4; value from days 2 and 3.
Turning to chain 1 LPHLQRTPPDGQSFRS, the screen value was 0.00126 average fractional NGS count over selection days 2 and 3 (reads of this peptide / all reads for the bait, averaged over …. On to chain 1 LPHLQRDPPDGQSFRS, for which the screen value was 0.000477 average fractional NGS count over selection days 2 and 3 (reads of this peptide / all reads for the bait, averaged over …. As for chain 1 LPHLQRLPPDGQSFRS, the screen value is 0.00604 average fractional NGS count over selection days 2 and 3 (reads of this peptide / all reads for the bait, averaged over …. As to chain 1 LPHLQREPPDGQSFRS, the screen value was 0.00893 average fractional NGS count over selection days 2 and 3 (reads of this peptide / all reads for the bait, averaged over …. chain 1 LPHLQRPPPDGQSFRS: the screen value was 0.00153 average fractional NGS count over selection days 2 and 3 (reads of this peptide / all reads for the bait, averaged over …. Next, chain 1 LPHLQRIPPDGQSFRS: 0.000719 average fractional NGS count over selection days 2 and 3 (reads of this peptide / all reads for the bait, averaged over …. On to chain 1 LPHLQRKPPDGQSFRS, for which the screen value is 0.00104 average fractional NGS count over selection days 2 and 3 (reads of this peptide / all reads for the bait, averaged over …. Regarding chain 1 LPHLQRSPPDGQSPRS, the screen value is 0.000325 average fractional NGS count over selection days 2 and 3 (reads of this peptide / all reads for the bait, averaged over ….

On to chain 1 LPHLQRSPPDGQSWRS, for which the screen value is 0.00225 average fractional NGS count over selection days 2 and 3 (reads of this peptide / all reads for the bait, averaged over ….

With chain 1 LPHLQRSPPDGQSVRS, the screen value is 0.000585 average fractional NGS count over selection days 2 and 3 (reads of this peptide / all reads for the bait, averaged over …. As to chain 1 LPHLQRSPPDGQSYRS, the screen value was 0.00865 average fractional NGS count over selection days 2 and 3 (reads of this peptide / all reads for the bait, averaged over …. Consider chain 1 LPHLQRSPGDGQSFRS, for which the screen value was 0.000695 average fractional NGS count over selection days 2 and 3 (reads of this peptide / all reads for the bait, averaged over ….

For the variant chain 1 LPHLQRSPPDGQSFKS, the screen value was 0.00112 average fractional NGS count over selection days 2 and 3 (reads of this peptide / all reads for the bait, averaged over …. For chain 1 LPHLQRSPPDGQSFMS, the screen value is 0.00237 average fractional NGS count over selection days 2 and 3 (reads of this peptide / all reads for the bait, averaged over ….

For the variant chain 1 LPHLQRSPPDGQSFNS, the screen value is 0.000839 average fractional NGS count over selection days 2 and 3 (reads of this peptide / all reads for the bait, averaged over …. Regarding chain 1 LPHLQRSPPDGQSFVS, the screen value was 0.00361 average fractional NGS count over selection days 2 and 3 (reads of this peptide / all reads for the bait, averaged over ….

With chain 1 LPHLQRSPPDGISFRS, the screen value was 0.000382 average fractional NGS count over selection days 2 and 3 (reads of this peptide / all reads for the bait, averaged over …. chain 1 LPHLQRSPPDGLSFRS: the screen value is 0.00741 average fractional NGS count over selection days 2 and 3 (reads of this peptide / all reads for the bait, averaged over …. With chain 1 LPHLQRSPPDGKSFRS, the screen value was 0.000431 average fractional NGS count over selection days 2 and 3 (reads of this peptide / all reads for the bait, averaged over …. With chain 1 LPHLQRSPPDGNSFRS, the screen value was 0.00115 average fractional NGS count over selection days 2 and 3 (reads of this peptide / all reads for the bait, averaged over ….

Consider chain 1 LPHLQRSPPDGYSFRS, for which the screen value is 0.000794 average fractional NGS count over selection days 2 and 3 (reads of this peptide / all reads for the bait, averaged over …. Next, chain 1 LPHLQRSPPDGHSFRS: 0.0118 average fractional NGS count over selection days 2 and 3 (reads of this peptide / all reads for the bait, averaged over …; chain 1 LPHLQRSPPDGASFRS: 0.00503 average fractional NGS count over selection days 2 and 3 (reads of this peptide / all reads for the bait, averaged over …; chain 1 LPHLQRSPPEGQSFRS: 0.00381 average fractional NGS count over selection days 2 and 3 (reads of this peptide / all reads for the bait, averaged over …. As for chain 1 LPHLQRSPPTGQSFRS, the screen value was 0.000156 average fractional NGS count over selection days 2 and 3 (reads of this peptide / all reads for the bait, averaged over …. For chain 1 LPHLQRSPPQGQSFRS, the screen value is 0.00104 average fractional NGS count over selection days 2 and 3 (reads of this peptide / all reads for the bait, averaged over …. With chain 1 LPHLQRSPPIGQSFRS, the screen value is 0.000221 average fractional NGS count over selection days 2 and 3 (reads of this peptide / all reads for the bait, averaged over …. With chain 1 LPHLQRSQPDGQSFRS, the screen value was 0.00268 average fractional NGS count over selection days 2 and 3 (reads of this peptide / all reads for the bait, averaged over …. In the case of chain 1 LPHLQRSKPDGQSFRS, the screen value was 0.000693 average fractional NGS count over selection days 2 and 3 (reads of this peptide / all reads for the bait, averaged over ….

Regarding chain 1 LPHLQRSMPDGQSFRS, the screen value was 0.00437 average fractional NGS count over selection days 2 and 3 (reads of this peptide / all reads for the bait, averaged over ….

Take chain 1 LPHLQRSYPDGQSFRS: the screen value was 0.000667 average fractional NGS count over selection days 2 and 3 (reads of this peptide / all reads for the bait, averaged over …. With chain 1 LPHLQRSEPDGQSFRS the figure was 0.00169 average fractional NGS count over selection days 2 and 3 (reads of this peptide / all reads for the bait, averaged over …; with chain 1 LPHLQRSIPDGQSFRS, 0.00231 average fractional NGS count over selection days 2 and 3 (reads of this peptide / all reads for the bait, averaged over …. For the variant chain 1 LPHLQRSAPDGQSFRS, the screen value is 0.00935 average fractional NGS count over selection days 2 and 3 (reads of this peptide / all reads for the bait, averaged over …. With chain 1 LPHLQRSLPDGQSFRS the figure was 0.00187 average fractional NGS count over selection days 2 and 3 (reads of this peptide / all reads for the bait, averaged over …; with chain 1 LPHLQRSPPDGQGFRS, 0.00038 average fractional NGS count over selection days 2 and 3 (reads of this peptide / all reads for the bait, averaged over …; with chain 1 LPHLQRSPPDGQQFRS, 0.00224 average fractional NGS count over selection days 2 and 3 (reads of this peptide / all reads for the bait, averaged over …. For chain 1 LPHLQRSPPDGQYFRS, the screen value is 0.00204 average fractional NGS count over selection days 2 and 3 (reads of this peptide / all reads for the bait, averaged over …. Take chain 1 LPHLQRSPPDGQLFRS: the screen value is 0.00144 average fractional NGS count over selection days 2 and 3 (reads of this peptide / all reads for the bait, averaged over …. On to chain 1 LPHLQRSPPDGQDFRS, for which the screen value is 0.00033 average fractional NGS count over selection days 2 and 3 (reads of this peptide / all reads for the bait, averaged over …. For the variant chain 1 LPHLQRSPPDGQMFRS, the screen value is 0.00197 average fractional NGS count over selection days 2 and 3 (reads of this peptide / all reads for the bait, averaged over …. As to chain 1 LPHLQRSPPDGQTFRS, the screen value was 0.00243 average fractional NGS count over selection days 2 and 3 (reads of this peptide / all reads for the bait, averaged over …. In the case of chain 1 LNHLQRSPPDGQSFRS, the screen value was 0.000461 average fractional NGS count over selection days 2 and 3 (reads of this peptide / all reads for the bait, averaged over …. Next, chain 1 LVHLQRSPPDGQSFRS: 0.00125 average fractional NGS count over selection days 2 and 3 (reads of this peptide / all reads for the bait, averaged over …; chain 1 LAHLQRSPPDGQSFRS: 0.00048 average fractional NGS count over selection days 2 and 3 (reads of this peptide / all reads for the bait, averaged over …; chain 1 LIHLQRSPPDGQSFRS: 0.000822 average fractional NGS count over selection days 2 and 3 (reads of this peptide / all reads for the bait, averaged over …. For chain 1 LQHLQRSPPDGQSFRS, the screen value was 0.000644 average fractional NGS count over selection days 2 and 3 (reads of this peptide / all reads for the bait, averaged over ….

Regarding chain 1 LGHLQRSPPDGQSFRS, the screen value was 0.000225 average fractional NGS count over selection days 2 and 3 (reads of this peptide / all reads for the bait, averaged over …. For the variant chain 1 LFHLQRSPPDGQSFRS, the screen value is 0.00201 average fractional NGS count over selection days 2 and 3 (reads of this peptide / all reads for the bait, averaged over …. As to chain 1 LSHLQRSPPDGQSFRS, the screen value was 0.000402 average fractional NGS count over selection days 2 and 3 (reads of this peptide / all reads for the bait, averaged over …. Regarding chain 1 LPHAQRSPPDGQSFRS, the screen value was 0.00506 average fractional NGS count over selection days 2 and 3 (reads of this peptide / all reads for the bait, averaged over …. Regarding chain 1 LPHDQRSPPDGQSFRS, the screen value was 0.00145 average fractional NGS count over selection days 2 and 3 (reads of this peptide / all reads for the bait, averaged over …. With chain 1 LPHEQRSPPDGQSFRS the figure was 0.00039 average fractional NGS count over selection days 2 and 3 (reads of this peptide / all reads for the bait, averaged over …; with chain 1 LPELQRSPPDGQSFRS, 0.000323 average fractional NGS count over selection days 2 and 3 (reads of this peptide / all reads for the bait, averaged over ….

On to chain 1 LPYLQRSPPDGQSFRS, for which the screen value is 0.00044 average fractional NGS count over selection days 2 and 3 (reads of this peptide / all reads for the bait, averaged over …. Consider chain 1 LPLLQRSPPDGQSFRS, for which the screen value is 0.000556 average fractional NGS count over selection days 2 and 3 (reads of this peptide / all reads for the bait, averaged over ….

Consider chain 1 LPTLQRSPPDGQSFRS, for which the screen value was 0.000309 average fractional NGS count over selection days 2 and 3 (reads of this peptide / all reads for the bait, averaged over ….

Regarding chain 1 LPALQRSPPDGQSFRS, the screen value was 0.000153 average fractional NGS count over selection days 2 and 3 (reads of this peptide / all reads for the bait, averaged over …. Regarding chain 1 LPGLQRSPPDGQSFRS, the screen value was 0.000244 average fractional NGS count over selection days 2 and 3 (reads of this peptide / all reads for the bait, averaged over …. chain 1 LPPLQRSPPDGQSFRS: the screen value is 0.000298 average fractional NGS count over selection days 2 and 3 (reads of this peptide / all reads for the bait, averaged over …. chain 1 QPHLQRSPPDGQSFRS: the screen value is 0.00289 average fractional NGS count over selection days 2 and 3 (reads of this peptide / all reads for the bait, averaged over …. Next, chain 1 WPHLQRSPPDGQSFRS: 0.000782 average fractional NGS count over selection days 2 and 3 (reads of this peptide / all reads for the bait, averaged over ….
